These results are taken from IntAct's records for PubMed 29892012.

B1: Ligand of Numb protein X 2 (Homo sapiens), Q8N448 (parent)
chain: MGTTSDEMVSVEQTSSSSLNPLCFECGQQHWTRENHLYNYQNEVDDDLVCHICLQPLLQPLDTPCGHTFCYKCLRNFLQEKDFCPLDRKRLHFKLCKKSSILVHKLLDKLLVLCPFSSVCKDVMQRCDLEAHLKNRCPGASHRRVALERRKTSRTQAEIENENGPTLLDPAGTLSPEADCLGTGAVPVERHLTSASLSTWSEEPGLDNPAFEESAGADTTQQPLSLPEGEITTIEIHRSNPYIQLGISIVGGNETPLINIVIQEVYRDGVIARDGRLLAGDQILQVNNYNISNVSHNYARAVLSQPCNTLHLTVLRERRFGNRAHNHSDSNSPREEIFQVALHKRDSGEQLGIKLVRRTDEPGVFILDLLEGGLAAQDGRLSSNDRVLAINGHDLKYGTPELAAQIIQASGERVNLTIARPGKPQPGNTIREAGNHSSSSQHHTPPPYYSRPSSHKDLTQCVTCQEKHITVKKEPHESLGMTVAGGRGSKSGELPIFVTSVPPHGCLARDGRIKRGDVLLNINGIDLTNLSHSEAVAMLKASAASPAVALKALEVQIVEEATQNAEEQPSTFSENEYDASWSPSWVMWLGLPSTLHSCHDIVLRRSYLGSWGFSIVGGYEENHTNQPFFIKTIVLGTPAYYDGRLKCGDMIVAVNGLSTVGMSHSALVPMLKEQRNKVTLTVICWPGSLV
partner: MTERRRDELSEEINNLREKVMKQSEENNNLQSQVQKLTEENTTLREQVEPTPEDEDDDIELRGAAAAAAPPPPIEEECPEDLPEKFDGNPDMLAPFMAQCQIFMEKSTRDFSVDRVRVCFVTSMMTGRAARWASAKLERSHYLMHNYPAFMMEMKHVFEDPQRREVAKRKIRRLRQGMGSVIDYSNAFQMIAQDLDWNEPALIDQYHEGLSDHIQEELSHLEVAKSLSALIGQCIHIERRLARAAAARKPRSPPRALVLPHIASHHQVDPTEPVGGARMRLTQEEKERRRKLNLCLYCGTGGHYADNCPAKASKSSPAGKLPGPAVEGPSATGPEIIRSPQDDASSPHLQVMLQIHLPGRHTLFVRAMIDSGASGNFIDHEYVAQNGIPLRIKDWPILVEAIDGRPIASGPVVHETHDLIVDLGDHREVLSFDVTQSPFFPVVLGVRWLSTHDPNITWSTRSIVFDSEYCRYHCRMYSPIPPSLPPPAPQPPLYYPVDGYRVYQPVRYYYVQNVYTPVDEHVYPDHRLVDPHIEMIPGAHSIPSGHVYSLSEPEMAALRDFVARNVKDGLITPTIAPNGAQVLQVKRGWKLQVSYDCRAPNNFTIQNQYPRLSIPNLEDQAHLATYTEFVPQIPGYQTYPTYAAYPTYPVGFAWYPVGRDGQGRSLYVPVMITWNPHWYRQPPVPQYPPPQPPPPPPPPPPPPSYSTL
B2: Glutaredoxin-3 (Homo sapiens), O76003 (parent)
chain: MAAGAAEAAVAAVEEVGSAGQFEELLRLKAKSLLVVHFWAPWAPQCAQMNEVMAELAKELPQVSFVKLEAEGVPEVSEKYEISSVPTFLFFKNSQKIDRLDGAHAPELTKKVQRHASSGSFLPSANEHLKEDLNLRLKKLTHAAPCMLFMKGTPQEPRCGFSKQMVEILHKHNIQFSSFDIFSDEEVRQGLKAYSSWPTYPQLYVSGELIGGLDIIKELEASEELDTICPKAPKLEERLKVLTNKASVMLFMKGNKQEAKCGFSKQILEILNSTGVEYETFDILEDEEVRQGLKAYSNWPTYPQLYVKGELVGGLDIVKELKENGELLPILRGEN
partner: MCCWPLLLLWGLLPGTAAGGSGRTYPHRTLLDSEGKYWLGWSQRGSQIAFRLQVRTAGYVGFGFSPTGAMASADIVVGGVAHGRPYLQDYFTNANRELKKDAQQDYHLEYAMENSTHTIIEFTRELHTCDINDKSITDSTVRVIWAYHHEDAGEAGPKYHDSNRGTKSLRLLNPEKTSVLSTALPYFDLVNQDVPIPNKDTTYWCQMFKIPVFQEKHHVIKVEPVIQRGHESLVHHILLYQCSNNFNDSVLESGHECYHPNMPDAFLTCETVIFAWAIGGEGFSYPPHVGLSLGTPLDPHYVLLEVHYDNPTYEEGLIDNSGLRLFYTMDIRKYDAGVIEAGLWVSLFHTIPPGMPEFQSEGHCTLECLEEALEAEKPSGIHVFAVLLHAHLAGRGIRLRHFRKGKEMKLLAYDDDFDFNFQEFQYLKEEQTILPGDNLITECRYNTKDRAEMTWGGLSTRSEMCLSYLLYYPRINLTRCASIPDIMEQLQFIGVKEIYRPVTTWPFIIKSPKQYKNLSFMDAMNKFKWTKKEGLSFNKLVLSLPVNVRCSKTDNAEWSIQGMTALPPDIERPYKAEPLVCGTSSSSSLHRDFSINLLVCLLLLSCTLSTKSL
B3: Alpha-ketoglutarate-dependent dioxygenase alkB homolog 3 (Homo sapiens), Q96Q83 (parent)
chain: MEEKRRRARVQGAWAAPVKSQAIAQPATTAKSHLHQKPGQTWKNKEHHLSDREFVFKEPQQVVRRAPEPRVIDREGVYEISLSPTGVSRVCLYPGFVDVKEADWILEQLCQDVPWKQRTGIREDITYQQPRLTAWYGELPYTYSRITMEPNPHWHPVLRTLKNRIEENTGHTFNSLLCNLYRNEKDSVDWHSDDEPSLGRCPIIASLSFGATRTFEMRKKPPPEENGDYTYVERVKIPLDHGTLLIMEGATQADWQHRVPKEYHSREPRVNLTFRTVYPDPRGAPW
partner: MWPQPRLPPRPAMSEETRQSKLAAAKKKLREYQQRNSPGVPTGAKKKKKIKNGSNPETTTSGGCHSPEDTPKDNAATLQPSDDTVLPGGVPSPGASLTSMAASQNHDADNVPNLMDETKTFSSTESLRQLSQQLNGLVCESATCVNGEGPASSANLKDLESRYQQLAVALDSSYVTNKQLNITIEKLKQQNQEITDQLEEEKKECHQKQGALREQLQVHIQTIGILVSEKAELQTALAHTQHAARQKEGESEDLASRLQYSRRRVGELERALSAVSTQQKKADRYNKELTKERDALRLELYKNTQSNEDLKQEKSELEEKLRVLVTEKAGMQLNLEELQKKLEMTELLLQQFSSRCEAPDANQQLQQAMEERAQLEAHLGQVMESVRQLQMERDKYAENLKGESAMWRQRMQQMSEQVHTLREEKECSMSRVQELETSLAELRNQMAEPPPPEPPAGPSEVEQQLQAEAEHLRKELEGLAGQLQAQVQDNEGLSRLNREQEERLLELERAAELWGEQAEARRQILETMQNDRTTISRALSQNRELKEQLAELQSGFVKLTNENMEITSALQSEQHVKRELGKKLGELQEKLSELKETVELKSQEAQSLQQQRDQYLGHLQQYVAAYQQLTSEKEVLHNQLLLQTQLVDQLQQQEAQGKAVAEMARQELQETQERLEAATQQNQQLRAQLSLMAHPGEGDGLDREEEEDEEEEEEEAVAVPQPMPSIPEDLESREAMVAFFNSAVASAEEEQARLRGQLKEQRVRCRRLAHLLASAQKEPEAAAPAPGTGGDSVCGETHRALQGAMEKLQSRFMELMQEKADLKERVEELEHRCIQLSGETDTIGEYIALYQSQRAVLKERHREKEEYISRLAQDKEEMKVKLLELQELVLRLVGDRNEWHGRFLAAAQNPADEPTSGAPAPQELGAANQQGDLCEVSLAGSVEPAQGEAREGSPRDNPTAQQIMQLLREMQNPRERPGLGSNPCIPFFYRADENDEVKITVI
B4: Ena/VASP-like protein (Homo sapiens), Q9UI08 (parent)
chain: MSEQSICQARASVMVYDDTSKKWVPIKPGQQGFSRINIYHNTASNTFRVVGVKLQDQQVVINYSIVKGLKYNQATPTFHQWRDARQVYGLNFASKEEATTFSNAMLFALNIMNSQEGGPSSQRQVQNGPSPDEMDIQRRQVMEQHQQQRQESLERRTSATGPILPPGHPSSAASAPVSCSGPPPPPPPPVPPPPTGATPPPPPPLPAGGAQGSSHDESSMSGLAAAIAGAKLRRVQRPEDASGGSSPSGTSKSDANRASSGGGGGGLMEEMNKLLAKRRKAASQSDKPAEKKEDESQMEDPSTSPSPGTRAASQPPNSSEAGRKPWERSNSVEKPVSSILSRTPSVAKSPEAKSPLQSQPHSRMKPAGSVNDMALDAFDLDRMKQEILEEVVRELHKVKEEIIDAIRQELSGISTT
partner: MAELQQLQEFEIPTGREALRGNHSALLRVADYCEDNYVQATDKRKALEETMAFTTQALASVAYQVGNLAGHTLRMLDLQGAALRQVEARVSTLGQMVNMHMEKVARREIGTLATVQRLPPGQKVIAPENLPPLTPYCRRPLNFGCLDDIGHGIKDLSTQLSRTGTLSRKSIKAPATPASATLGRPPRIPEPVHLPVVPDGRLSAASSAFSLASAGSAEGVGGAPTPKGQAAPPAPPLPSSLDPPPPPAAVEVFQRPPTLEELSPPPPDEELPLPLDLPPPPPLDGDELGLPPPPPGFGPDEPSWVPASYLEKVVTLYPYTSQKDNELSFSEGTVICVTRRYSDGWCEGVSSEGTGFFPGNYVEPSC
B5: Glutaredoxin-3 (Homo sapiens), O76003 (parent)
chain: B2 chain
partner: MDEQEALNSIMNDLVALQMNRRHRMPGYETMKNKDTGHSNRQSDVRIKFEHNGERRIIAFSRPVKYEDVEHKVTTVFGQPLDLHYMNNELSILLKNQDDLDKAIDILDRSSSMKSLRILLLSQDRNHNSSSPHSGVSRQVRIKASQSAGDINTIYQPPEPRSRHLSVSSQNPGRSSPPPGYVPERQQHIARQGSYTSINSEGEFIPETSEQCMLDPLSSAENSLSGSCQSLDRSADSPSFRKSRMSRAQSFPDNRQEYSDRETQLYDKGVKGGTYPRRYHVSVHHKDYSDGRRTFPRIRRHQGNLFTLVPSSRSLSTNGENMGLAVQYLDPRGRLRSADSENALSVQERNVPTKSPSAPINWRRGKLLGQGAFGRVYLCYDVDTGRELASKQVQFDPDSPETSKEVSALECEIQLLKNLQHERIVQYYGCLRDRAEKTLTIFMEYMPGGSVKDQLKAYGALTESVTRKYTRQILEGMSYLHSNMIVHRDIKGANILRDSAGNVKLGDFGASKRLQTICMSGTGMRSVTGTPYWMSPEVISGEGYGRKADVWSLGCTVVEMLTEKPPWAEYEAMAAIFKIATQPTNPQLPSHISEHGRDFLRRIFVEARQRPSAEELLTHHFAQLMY
B6: Ribosome assembly protein METTL17, mitochondrial (Homo sapiens), Q9H7H0 (parent)
chain: MAAALKCLLTLGRWCPGLGVAPQARALAALVPGVTQVDNKSGFLQKRPHRQHPGILKLPHVRLPQALANGAQLLLLGSAGPTMENQVQTLTSYLWSRHLPVEPEELQRRARHLEKKFLENPDLSQTEEKLRGAVLHALRKTTYHWQELSYTEGLSLVYMAARLDGGFAAVSRAFHEIRARNPAFQPQTLMDFGSGTGSVTWAAHSIWGQSLREYMCVDRSAAMLVLAEKLLKGGSESGEPYIPGVFFRQFLPVSPKVQFDVVVSAFSLSELPSKADRTEVVQTLWRKTGHFLVLVENGTKAGHSLLMDARDLVLKGKEKSPLDPRPGFVFAPCPHELPCPQLTNLACSFSQAYHPIPFSWNKKPKEEKFSMVILARGSPEEAHRWPRITQPVLKRPRHVHCHLCCPDGHMQHAVLTARRHGRDLYRCARVSSWGDLLPVLTPSAFPPSTAQDPSES
partner: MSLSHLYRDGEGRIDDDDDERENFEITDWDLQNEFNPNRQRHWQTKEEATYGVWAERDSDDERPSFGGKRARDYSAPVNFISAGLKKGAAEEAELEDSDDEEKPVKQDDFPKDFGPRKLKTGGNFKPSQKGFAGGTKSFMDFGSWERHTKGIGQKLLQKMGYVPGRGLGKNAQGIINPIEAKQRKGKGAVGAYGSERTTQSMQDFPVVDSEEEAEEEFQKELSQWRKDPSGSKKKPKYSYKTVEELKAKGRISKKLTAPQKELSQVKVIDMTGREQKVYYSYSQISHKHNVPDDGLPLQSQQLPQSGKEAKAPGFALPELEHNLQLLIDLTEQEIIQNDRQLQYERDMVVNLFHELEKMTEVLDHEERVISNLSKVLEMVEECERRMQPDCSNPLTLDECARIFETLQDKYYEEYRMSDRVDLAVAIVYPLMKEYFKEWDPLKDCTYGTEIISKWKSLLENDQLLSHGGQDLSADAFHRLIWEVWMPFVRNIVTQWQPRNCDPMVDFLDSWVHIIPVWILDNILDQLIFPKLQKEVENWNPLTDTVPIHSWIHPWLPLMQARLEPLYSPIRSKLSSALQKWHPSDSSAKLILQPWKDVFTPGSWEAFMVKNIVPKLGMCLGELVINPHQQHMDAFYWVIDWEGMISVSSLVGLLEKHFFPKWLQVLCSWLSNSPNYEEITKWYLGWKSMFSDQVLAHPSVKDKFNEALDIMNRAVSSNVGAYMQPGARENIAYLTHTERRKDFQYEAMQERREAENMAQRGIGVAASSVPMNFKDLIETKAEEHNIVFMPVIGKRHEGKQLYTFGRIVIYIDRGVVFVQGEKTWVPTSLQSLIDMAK

Variants of B1 are the subject of one experiment. Conditions: with peg10_human PEG10, Q86TG7.
As for P669A, the “effect of a mutation on the interaction” value is recorded as “with no effect”.

Another experiment covers variants of B2. Particulars: with moxd1_human MOXD1, Q6UVY6.
For P145A, the “effect of a mutation on the interaction” value was “with no effect”.

A further experiment covers variants of B3. Particulars: with goga2_human GOLGA2, Q08379.
Regarding R64H, the “effect of a mutation on the interaction” value is recorded as “with no effect”.

Variants of B4 are the subject of a further experiment. Particulars: with abi3_human ABI3, Q9P2A4.
With R10Q, the “effect of a mutation on the interaction” value is “with no effect”.

Variants of B5 are the subject of a further experiment. Conditions: with m3k3_human MAP3K3, Q99759.
Consider P145A, for which the “effect of a mutation on the interaction” value is reported as “with no effect”.

Variants of B6 are the subject of a further experiment. Particulars: with tfp11_human TFIP11, Q9UBB9.
As for R212H, the “effect of a mutation on the interaction” value is “disrupting interaction strength”.
